This test concerns the target human OX40 (human) (UniProt P43489). The experiment in a line: cell-based or functional assay.
Sequence of UniProt P43489 (P43489 29-277): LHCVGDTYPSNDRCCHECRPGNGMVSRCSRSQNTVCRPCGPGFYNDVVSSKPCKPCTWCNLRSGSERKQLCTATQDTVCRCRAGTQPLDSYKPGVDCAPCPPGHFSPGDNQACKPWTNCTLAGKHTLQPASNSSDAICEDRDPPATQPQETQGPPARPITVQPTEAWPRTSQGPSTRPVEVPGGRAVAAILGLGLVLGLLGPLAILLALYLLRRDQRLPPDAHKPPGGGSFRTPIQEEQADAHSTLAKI

The substance “soluble OX40 ligand (BPS Biosciences, Catalog #71185) (from UniProt P23510 51-183)” yielded an EC50 for T cell costimulation (proliferation of activated CD4+ Teff cells, CellTiter-Glo) of 14 µg/mL.

Values taken from patent publication US20240182594A1.
